Laboratory results from patent publication US20140378374A1, “METHODS OF TREATMENT” (GlaxoSmithKline Intellectual Property (No.2) Limited, priority 2013, published 2014).

Assay: Population pharmacokinetics, Phase 3 pooled analysis
Type: in vivo, human
Excerpt: During each Phase 3 study, 4 blood samples for population pharmacokinetic evaluation were obtained. In the study of patients with CKD, 2 predose samples were obtained at weeks 8 and 16 and 2 postdose samples were obtained at least 2 days after dosing between weeks 8 and 10 and weeks 16 and 20. In the other 3 studies, 2 predose samples were obtained at weeks 8 and 24 and 2 postdose samples were obtained at least 2 days after dosing between weeks 8 and 10 and weeks 24 and 28. The blood collection and storage procedure were the same as described above.
Plasma samples were analyzed for albiglutide by using a validated enzyme-linked immunosorbent assay (ELISA) and were diluted 100-fold with sample buffer before analysis. Albiglutide was captured using a rabbit anti-human GLP-1 (7-36) amide and detected using a rabbit anti-HSA conjugated to biotin. ELISA experiments were performed using the Furoninc® 96 well plate (Nunc, cat. #437796) with the following steps. […] The microtiter plate was washed 5 times with […] wash buffer (10 mM Sodium Phosphate, 150 mM NaCl, 0.05% Tween 20, pH 7.5) using plate washer; 2) […] blocking buffer of SuperBlock in PBS (SuperBlock (Pierce, cat. #37515) in PBS, 5.0% Rabbit Plasma) was added to each well, sealed and incubated with constant shaking for approximately 1.5 hour (±30 minutes) at ambient room temperature and the microtiter plate washed; 3) 100 mL of either standards, quality controls (QCs) or samples were added per well, sealed, incubated and washed; 4) 100 mL of Detection Antibody solution of Biotin Labelled Rabbit polyclonal to Human Serum Albumin (NOVUS Biologicals, cat. # NB 100-1674) was added per well, sealed, incubated and washed; 5) 100 mL of Reporter Tag solution (Streptavidin-HRPO Conjugate, Caltag, cat. # SA1007) was added per well, sealed, incubated and washed; 6) 100 mL of Development Substrate Pico (SuperSignal ELISA, Pierce, cat. #37070) was added, incubated and the plate read using plate reader (Wallac 1420 Victor Multilabel Counter, Perkin Elmer Life Sciences, Boston, Mass.). […]

Substance: Albiglutide: recombinant fusion protein of 2 copies of modified human GLP-1 (fragment 7-36(A8G)) genetically fused in series to recombinant human serum albumin
- apparent clearance CL/F, typical value of the final population PK model (BW 90.7, eGFR 77.9, covariates body weight, eGFR, African heritage, insulin): 66.6 mL/h
- decrease in clearance vs eGFR around 80 mL/min/1.73 m2 (patient with eGFR of 50 mL/min/1.73 m2): about 9%
- decrease in clearance vs eGFR around 80 mL/min/1.73 m2 (typical patient with eGFR of 30 mL/min/1.73 m2): about 19%
